From patent publication US20250263475A1 (AGENCY FOR SCIENCE TECHNOLOGY AND RESEARCH, published 2025) come the findings set out here.

Ends that are not written are not given here. * marks the point of attachment. Biotin = O=C1N[C@H]2[C@H](CS[C@H]2CCCCC(=O)*)N1

In one assay the target is T1, 267 RNSFEVHVCACPG 279 (not fully specified; cysteine pairing not given here).
T1 construct: also called unsubstituted 13-mer of the alanine scan on R273H
T1 peptide: Biotin-RNSFEVHVCACPG
The experiment in a line: ELISA on biotinylated 13-mer on streptavidin plate, antibody 1 ug/ml, O.D. 650 nm.

The target of another assay is T2, TFVHGNTWTIVN
T2 construct: also called line 1 under 13E4
T2 peptide: TFVHGNTWTIVN
The assay is described as follows: phage display, random 12-mers on M13 pIII, panning on the antibody.

Another assay has as its target T3, YNTFPYHLGYTL
T3 construct: also called line 5 under 13E4
T3 peptide: YNTFPYHLGYTL
Described as above.

A further assay deals with T4, YHVGGILGRLFM
T4 construct: also called line 3 under 13E4
T4 peptide: YHVGGILGRLFM
The description is as above.

A further assay concerns the target T5, DNASSSKVHHGH
T5 construct: also called line 2 under 13E4
T5 peptide: DNASSSKVHHGH
The description is as above.

A further assay concerns the target T6, GKTYSYHMQLYT
T6 construct: also called line 4 under 13E4
T6 peptide: GKTYSYHMQLYT
Described as above.

A further assay has as its target T7, SEQ ID NO 113.
T7 peptide: GKTYSYHMQLYT
The assay is described as follows: phage display: peptide captured by the antibody from an M13 random 12-mer library (FIG. 7C = clone 13E4 by paragraph 523).

The target in another assay is T8, SEQ ID NO 114.
T8 peptide: YHVGGILGRLFM
The description is as above.

The target in the next assay is T9, SEQ ID NO 115.
T9 peptide: YNTFPYHLGYTL
Described as above.

In another assay the target is T10, SEQ ID NO 116.
T10 peptide: DNASSSKVHHGH
The assay is described as above.

In a further assay the target is T11, SEQ ID NO 117.
T11 peptide: TFVHGNTWTIVN
The description is as above.

The next assay deals with T12, SEQ ID NO 106.
T12 peptide: SSRPMAHWPIKV
The experiment in a line: phage display: peptide captured by the antibody from an M13 random 12-mer library (FIG. 7B = clone 4H2 by paragraph 523).

The next assay concerns the target T13, SEQ ID NO 104.
T13 peptide: ELWQNVRPFLWV
Described as above.

The target in a further assay is T14, SEQ ID NO 109.
T14 peptide: INTPRDWAYGGL
Described as above.

For the next assay, the target named is T15, SEQ ID NO 105.
T15 peptide: SRPADHWPRHNE
The description is as above.

The target in another assay is T16, SEQ ID NO 108.
T16 peptide: SNTPHWPGRPGI
Described as above.

The next assay has as its target T17, ELWQNVRPFLWV
T17 construct: also called line 1 under 4H2
T17 peptide: ELWQNVRPFLWV
The experiment in a line: phage display, random 12-mers on M13 pIII, panning on the antibody.

For another assay, the target named is T18, SRPADHWPRHNE
T18 construct: also called line 2 under 4H2
T18 peptide: SRPADHWPRHNE
Described as above.

The target of another assay is T19, SNTPHWPGRPGI
T19 construct: also called line 5 under 4H2
T19 peptide: SNTPHWPGRPGI
Described as above.

Another assay addresses T20, SSRPMAHWPIKV
T20 construct: also called line 3 under 4H2
T20 peptide: SSRPMAHWPIKV
The description is as above.

In assay [1] the target is T21, human p53 wild-type full length protein (human, UniProt P04637 1-393).
T21 construct: Full length recombinant protein in ELISA; expressed in transfected H1299 cells or endogenous in MCF7/A549 cells and tumour samples in blots, IP, IF and IHC; also called wildtype p53; WT HP53
The experiment in a line: ELISA on coated full-length protein.

In assay [2] the target is T22, mouse p53 wild-type full length protein (mouse, UniProt P02340 1-390).
T22 construct: mature; Full length protein in ELISA; also called wildtype mouse p53; p53 of wild-type MEFs
The assay is described as follows: ELISA on coated full-length protein.

Another assay deals with T23, SEQ ID NO 142.
T23 peptide: FSVRPYDPQIEN
The experiment in a line: phage display: peptide captured by the antibody (FIG. 8B taken as clone 3G11 by paragraph 561).

A further assay addresses T24, SEQ ID NO 136.
T24 peptide: SSTHYSWSLMDA
The description is as above.

A further assay addresses T25, SEQ ID NO 140.
T25 peptide: FSVRPFHYAQDN
Described as above.

Another assay addresses T26, SEQ ID NO 139.
T26 peptide: FSVPSGHYIRAN
The assay is described as above.

In the next assay the target is T27, SEQ ID NO 141.
T27 peptide: FSVPFDRIQETP
The description is as above.

The target in the next assay is T28, SEQ ID NO 137.
T28 peptide: GPSCHYCFTGLP
Described as above.

The target of a further assay is T29, SEQ ID NO 138.
T29 peptide: WSVPPGRHIHYS
Described as above.

Another assay concerns the target T30, FSVRPFHYAQDN
T30 construct: also called line 8 under 3G11
T30 peptide: FSVRPFHYAQDN
The experiment in a line: phage display, random 12-mers on M13 pIII, panning on the antibody.

Another assay has as its target T31, FSVPSGHYIRAN
T31 construct: also called line 10 under 3G11
T31 peptide: FSVPSGHYIRAN
The assay is described as above.

Another assay concerns the target T32, GPSCHYCFTGLP
T32 construct: also called lines 2 and 3 under 3G11
T32 peptide: GPSCHYCFTGLP
The description is as above.

The next assay deals with T33, WSVPPGRHIHYS
T33 construct: also called lines 4 and 5 under 3G11
T33 peptide: WSVPPGRHIHYS
The assay is described as above.

For a further assay, the target named is T34, SSTHYSWSLMDA
T34 construct: also called line 1 under 3G11
T34 peptide: SSTHYSWSLMDA
The assay is described as above.

The next assay concerns the target T35, FSVPFDRIQETP
T35 construct: also called line 7 under 3G11
T35 peptide: FSVPFDRIQETP
The assay is described as above.

Another assay concerns the target T36, FSVRPYDPQIEN
T36 construct: also called line 9 under 3G11
T36 peptide: FSVRPYDPQIEN
The description is as above.

B1: anti-R273H p53 antibody clone 13E4 (antibody, V domains shown)
VH: EVQLLETGGDLVTPGGSLKLSCAASGFSFSDYYMYWVRQTPEKRLEWVATISVGGTYTFYSDNVKGRFVISRDNARKNLHLEMNSLKSEDAAMYYCVRDGNDGKFLGYWGQGTFVTVTV
VL: DIVMTQSPLSLPVNLGDQVSLSCRSSQSIVHNNGDTYLEWYLQKPGQSPKLLIYKVSNRFSGVPDRFSGSGSGTDFTLKISRVEAEDLGIYYCFQGSHLPLTFGSGTKLELK
notes: Mouse monoclonal antibody from hybridoma; also called 13E4 mAb
For B1, the binding result with 267 RNSFEVHVCACPG 279, in the assay with TFVHGNTWTIVN, with YNTFPYHLGYTL, in the assay with YHVGGILGRLFM, with DNASSSKVHHGH and with GKTYSYHMQLYT was “binds” throughout. Besides, the binding result in the assay with SEQ ID NO 113, with SEQ ID NO 114, in the assay with SEQ ID NO 115, with SEQ ID NO 116 and in the assay with SEQ ID NO 117 was “binds” each time.

B2: anti-R248Q p53 antibody clone 4H2 (antibody, V domains shown)
VH: QVQLKQSGPELVKPGASVKMSCKASGYTFTDYYLKWVRQSHGKSLEWIGDIDPKNGGTNYNQKFKGKATLTVDKSSSTAYMQLNSLTSEDSAVYYCAKQGGFDDYWGQGTTLTVSS
VL: not shown
notes: Mouse monoclonal antibody from hybridoma
Consider B2, for which the binding result with SEQ ID NO 106, in the assay with SEQ ID NO 104, with SEQ ID NO 109, with SEQ ID NO 105, in the assay with SEQ ID NO 108 and in the assay with ELWQNVRPFLWV was “binds” each time. The binding result with SRPADHWPRHNE is listed as “binds”; with SNTPHWPGRPGI it was “binds”; in the assay with SSRPMAHWPIKV, “binds”; in [1], “no binding (tested: neat supernatant)”; in assay [2], “no binding (tested: neat supernatant)”.

B3: mouse human chimeric anti-R248Q p53 antibody clone MH 4H2 (antibody, V domains shown)
VH: QVQLKQSGPELVKPGASVKMSCKASGYTFTDYYLKWVRQSHGKSLEWIGDIDPKNGGTNYNQKFKGKATLTVDKSSSTAYMQLNSLTSEDSAVYYCAKQGGFDDYWGQGTTLTVSS
VL: not shown
notes: also called chimeric 4H2
With B3, in [2], the binding result is recorded as “no binding (tested: 1 ng/µl)”.

B4: anti-R248Q p53 antibody clone 3G11 (antibody, V domains shown)
VH: DVQLQQSGPELVKPGASVKMSCKASGYTFTDYYVKWVKQSPGQSLEWIGDIHPKNGGTNYNQKFKGKAALTVDKSSSTAYMQLNSLTSEDSAVYFCAKMGGYDDYWGQGTTLTVSS
VL: not shown
B4: the binding result with SEQ ID NO 142, with SEQ ID NO 136, with SEQ ID NO 140, with SEQ ID NO 139, with SEQ ID NO 141 and with SEQ ID NO 137 was “binds” each time. Besides, the binding result with SEQ ID NO 138 is reported as “binds”; in assay [2] it was “no binding (tested: neat supernatant)”; with FSVRPFHYAQDN, “binds”; with FSVPSGHYIRAN it was “binds”; with GPSCHYCFTGLP, “binds”; with WSVPPGRHIHYS, “binds”. In addition, the binding result in the assay with SSTHYSWSLMDA, with FSVPFDRIQETP and in the assay with FSVRPYDPQIEN was “binds” in each case.

B5: mouse human chimeric anti-R248Q p53 antibody clone MH 3G11 (antibody, V domains shown)
VH: DVQLQQSGPELVKPGASVKMSCKASGYTFTDYYVKWVKQSPGQSLEWIGDIHPKNGGTNYNQKFKGKAALTVDKSSSTAYMQLNSLTSEDSAVYFCAKMGGYDDYWGQGTTLTVSS
VL: not shown
notes: also called chimeric 3G11
On to B5, for which the binding result in assay [2] is reported as “no binding (tested: 1 ng/µl)”.
